Laboratory results reported in the supplement of paper PMC12764529.
± gives the half width of the 95% confidence interval.

What was measured:
[1] = folding stability dG unfold from trypsin proteolysis; higher = more stable
How it was run: (§1)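 Unfolding free energy was derived, per protease or combined, against a sequence-predicted unfolded-state K50 and a shared folded-state K50, starting from K50 inferred by Bayesian fitting of sequencing counts. Digestion with trypsin and chymotrypsin was carried out on designed mini-proteins under 80 residues without cysteine in a PA-tagged cDNA display construct. Only designs with AlphaFold2 dimer inter-PAE above 15 were kept.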

[2] = folding stability dG unfold from chymotrypsin proteolysis; higher = more stable
How it was run: as §1

[3] = folding stability dG unfold (combined trypsin and chymotrypsin); higher = more stable
How it was run: as §1

Sequence | folding stability dG unfold [1] [kcal/mol] | folding stability dG unfold [2] [kcal/mol] | folding stability dG unfold [3] [kcal/mol]
SAGGSPLLVLHIRLRRPGEEREIVIPSDLIEDMPLEEIEEILRALPWIDEAEIELEEFPPLRPDELSAGGSA [r2_282_TrMRF] | 1.21 ± 0.026 | 1.98 ± 0.11 | 1.67 ± 0.089
SAGGSPNFRIHIEGPEGKTLQYPVDPGFNKPDIQDWLQELGNIEIDQHPNDGWITIRIPKDALDQFSAGGSA [r2_164_TrROS] | 0.226 ± 0.12 | 0.0882 ± 0.21 | 0.161 ± 0.27
SAGGSPNIKITSKEKEGSKLKYTIQTPDKTITIEYSEGKATFKFPDGSTKTLTGKGSLEKAIKEAVLSSAGG [r13_98_JUSTAS] | 0.936 ± 0.11 | 1.99 ± 0.25 | 1.59 ± 0.2
SAGGSPPDKWVTLPFTMRYPDNGLEVEVNIVINPDDGKIQVEMEVYDNGKPKQEVPATIPADEIKLSAGGSA [r2_188_TrROS] | 0.639 ± 0.035 | 0.594 ± 0.23 | 0.699 ± 0.13
SAGGSPPNITYELTFPDGTVYTDPLPGKSLEELKEYVKSLNFTNVEVTVYEESSEVSTYKVTIPPNESAGGS [r16_700_JUSTAS] | 0.169 ± 0.079 | 0.57 ± 0.13 | 0.437 ± 0.12
SAGGSPSTVVPTLLTLEIVKKDEKGNETSETIPVLVEDSPEEARERLIEEIEKKYGAEVVKVTVKPESAGGS [r16_511_JUSTAS] | -0.576 ± 0.07 | -1.22 ± 0.27 | -0.608 ± 0.18
SAGGSQRFRITELVVPEDDGNLFIRVRGPNGKSMFMPASDIEKARKNGKEIEFPFPNGQPFEVEIISAGGSA [r2_301_TrROS] | -0.34 ± 0.44 | -0.461 ± 0.66 | -0.411 ± 0.33
SAGGSRTVLLYDPDNPRPYIVEYDPATGTLRIYDPETGELVAEFPIPDLKDIEAPVVPNGILLGAIVDSAGG [r13_720_TrMRF] | 1.03 ± 0.023 | 1.998 ± 0.018 | 1.68 ± 0.075
SAGGSSGSIDRVELLSFDPEKGIALVRFPSFGSIQVIPIPPGKNSLKVKVINKNGEPFEFTFSLPLSAGGSA [r2_132_TrMRF] | 2.82 ± 0.082 | 3.1 ± 0.043 | 3 ± 0.07
SAGGSSITVTDETTVEVSPTGSPTGPPVATVTTTTSTTTTTYYDPKTGTSTETTTTTTTTTTSTGASAGGSA [r2_269_JUSTAS] | 0.603 ± 0.067 | 0.192 ± 0.11 | 0.382 ± 0.15
SAGGSSMEVEIDTSKSTTTYTHPSGEKVATRSLVLTPPSPGDPLRFLNVEFEKLPDGSVVVKKIVGSAGGSA [r2_362_JUSTAS] | -0.338 ± 0.17 | -0.142 ± 0.32 | -0.0806 ± 0.22
SAGGSSMYKTTTTPLSTFPVRDENGNFLEETKFEKTTVTYPDGSTVTVLKIEVGGKTFTLEVTPTPSAGGSA [r2_158_JUSTAS] | 0.0145 ± 0.075 | 0.952 ± 0.18 | 0.565 ± 0.18
SAGGSSPELAAERLAEELRRQGYAVREVVVTYDPAGTVTVSAVIEDPADPAATSTLTVTVPLAELGSAGGSA [r2_384_JUSTAS] | 2.45 ± 0.059 | 2.91 ± 0.024 | 2.73 ± 0.046
SAGGSSSLAIITIKPKEIKSYYNPNNPVVVSEMEFEVDITIYSDNEISPEKVKELIEEIEKAFPGIKSAGGS [r8_306_TrMRF] | 1.31 ± 0.051 | 2.88 ± 0.11 | 2.32 ± 0.18
SAGGSSSSALVTVPRTETFPGTTLTTETLITIDPETGTVKVTSTVYSEGEPVEVVPSTVPAAEVTLSAGGSA [r2_188_JUSTAS] | 0.566 ± 0.036 | 0.503 ± 0.051 | 0.592 ± 0.077
SAGGSSSSLIGEIKLPSNVTIKIERSSKGVRTAVVTFPETGKVVTLPLDPNVSIEEIIEKVKEIVEKKSAGG [r13_624_JUSTAS] | 2.06 ± 0.093 | 1.29 ± 0.043 | 1.71 ± 0.066
SAGGSTITTDVPEARELLEELVKAGIKNIKVTVELDGSTVTLEVPPDELEKLVEEIPPEAKVTLEASSAGGS [r16_636_JUSTAS] | 0.442 ± 0.019 | 1.44 ± 0.041 | 1.12 ± 0.062
SAGGSTVSVVPFPDYLLVVTTDVRRTPVPDTDTVSTELTTTVTVIPLPDVPPPVLPFLDADGNPYYASAGGS [r8_46_TrMRF] | 1.01 ± 0.093 | 0.522 ± 0.11 | 0.694 ± 0.093
SAGGSVDIKRIEIYHPPDDKIYIRIDAVASPEHPEDPELRKAQAEALRKPVIEELMKKLGIEPEELSAGGSA [r2_306_JUSTAS] | 0.241 ± 0.075 | 0.61 ± 0.073 | 0.468 ± 0.12
SAGGSVEIWILLPPNNPDLDKIREKLRDEPGIDDVNVKVVKPTPGYWVFEIEVNGDPEVADKIRDLISAGGS [r16_394_TrROS] | 1.09 ± 0.1 | 1.61 ± 0.18 | 1.51 ± 0.26
SAGGSVRVETEFERLPDGPIVVRVRITLPNGETLEFTAVYYPEPSGIPMFVPEPVPPNAIEGIDIKVSAGGS [r16_95_TrMRF] | 2.55 ± 0.09 | 1.78 ± 0.047 | 2.11 ± 0.16
SAGGSVTITSITSIDTSSLSPDSVVTADVPDGKPVLIKGKVPPDGSVILTFYTPDGKPVATFTIPSSAGGSA [r2_323_JUSTAS] | 0.508 ± 0.017 | 0.779 ± 0.056 | 0.669 ± 0.06
SAGGSVTLPDATVVKVPPSQDWQEHADRLAAEIREAGADYEVSVESTPDGSVLITITVPGRTWTMVTSAGGS [r16_771_JUSTAS] | 1.15 ± 0.032 | 0.49 ± 0.077 | 0.936 ± 0.03
SAGGSVTTETDEYFYPDNLFTVAKTTLYVGSGPVEATAVSYPTFTLVNVHYPDGSVDTFLFTLTDDSSAGGS [r16_108_TrMRF] | 2.38 ± 0.11 | 3.56 ± 0.06 | 3.08 ± 0.13
SAGGSVVTTTFTYPDGTVVTTTTTPRPETLLTTTTTTTFYPDKPVKVAPGKEVVTTVTTTTTTVTPAASAGG [r13_780_JUSTAS] | 0.378 ± 0.03 | 0.574 ± 0.12 | 0.54 ± 0.069
SAGGSWVIIIQITIRNPGEERKITIPMEEIQGMPLEQIADNLRKLPGIGDVTIEIQEFPPPKPNDPSAGGSA [r2_282_TrROS] | 2.31 ± 0.11 | 2.34 ± 0.099 | 2.31 ± 0.2
SAGGSYLDEVREKILKEYPLKPGEPKEIEITVPLPSGRTVKIKIPVTVDPKTGKVEAKFEVLEETKESAGGS [r16_634_JUSTAS] | 0.395 ± 0.033 | 1.22 ± 0.028 | 0.934 ± 0.074
